According to paper PMC7609443, “Complement C1q Interacts With LRP1 Clusters II and IV Through a Site Close but Different From the Binding Site of Its C1r and C1s-Associated Proteases” (Frontiers in Immunology, 2020):

B1: Soluble LRP1 cluster IV (domain or fragment)
chain: not shown
notes: four amino acids naturally located in full-length LRP1 after the cleavage site of the signal peptide; numbers count on: the mature protein; introduced by the cloning process (BamHI site); LRP1 cluster IV, 11 CR modules (CR21-31), human; Secreted with the LRP1 signal peptide, which is cleaved; Glycosylated: 62,528 Da by MALDI; also called CR21-31
B2: Receptor-associated protein (RAP) (natural protein, UniProt P30533 35-357, looked up)
chain: YSREKNQPKPSPKRESGEEFRMEKLNQLWEKAQRLHLPPVRLAELHADLKIQERDELAWKKLKLDGLDEDGEKEARLIRNLNVILAKYGLDGKKDARQVTSNSLSGTQEDGLDDPRLEKLWHKAKTSGKFSGEELDKLWREFLHHKEKVHEYNVLLETLSRTEEIHENVISPSDLSDIKGSVLHSRHTELKEKLRSINQGLDRLRRVSHQGYSTEAEFEEPRVIDLWDLAQSANLTDKELEAFREELKHFEAKIEKHNHYQKQLEIAHEKLRHAESVGDGERVSRSREKHALLEGRTKELGYTVKKHLQDLSGRISRARHNEL
notes: receptor-associated protein (RAP), chaperone of 39 kDa of LRP1; Y'; The printed 'Y' may be the first residue of mature RAP (surmise)
B3: Soluble LRP1 cluster II (domain or fragment, human)
chain: AIDAGSPQCQPGEFACANSRCIQERWKCDGDNDCLDNSDEAPALCHQHTCPSDRFKCENNRCIPNRWLCDGDNDCGNSEDESNATCSARTCPPNQFSCASGRCIPISWTCDLDDDCGDRSDESASCAYPTCFPLTQFTCNNGRCININWRCDNDNDCGDNSDEAGCSHSCSSTQFKCNSGRCIPEHWTCDGDNDCGDYSDETHANCTNQATRPPGGCHTDEFQCRLDGLCIPLRWRCDGDTDCMDSSDEKSCEGVTHVCDPSVKFGCKDSARCISKAWVCDGDNDCEDNSDEENCESLACRPPSHPCANNTSVCLPPDKLCDGNDDCGDGSDEGELC
notes: four amino acids naturally located in full-length LRP1 after the cleavage site of the signal peptide; numbers count on: the mature protein; introduced by the cloning process (BamHI site); LRP1 cluster II, 8 CR modules (CR3-10), human; Secreted with the LRP1 signal peptide, which is cleaved; Glycosylated: 50,372 Da by MALDI; also called CR3-10

What was measured:
Conditions in all cases: both partners purified
[1] = biological target: T1, C1q mutant LysA59Ala/LysB61Ala/LysC58Ala (UniProt P02745 23-245; P02746 28-253; P02747 29-245, LysA59Ala | LysB61Ala | LysC58Ala); assay: SPR; T200; serum C1q (14,000 RU), rC1q WT (11,000 RU) or rC1qABC (12,300 RU) immobilised on CM5; clusters II and IV injected in 50 mM Tris, 150 mM NaCl, 2 mM CaCl2, 0.05% P20, pH 7.4, 180 s at 30 µl/min; KD by steady state analysis
T1 construct: complement C1q, A chain, recombinant; complement C1q, B chain, recombinant; complement C1q, C chain, recombinant; also called rC1qABC; rC1q ABC; source: produced and purified as described in Bally et al. (16); copies: 6 + 6 + 6
T1 sequence (P02745 other isoform, or with tags, fused parts or gaps with the stated changes, chain 1 of 3): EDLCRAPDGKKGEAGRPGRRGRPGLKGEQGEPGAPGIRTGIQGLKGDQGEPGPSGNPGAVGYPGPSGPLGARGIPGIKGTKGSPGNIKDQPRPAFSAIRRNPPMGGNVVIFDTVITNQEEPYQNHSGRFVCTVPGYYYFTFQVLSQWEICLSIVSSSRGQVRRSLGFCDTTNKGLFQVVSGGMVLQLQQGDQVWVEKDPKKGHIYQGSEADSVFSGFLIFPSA
T1 sequence (P02746 other isoform, or with tags, fused parts or gaps with the stated changes, chain 2 of 3): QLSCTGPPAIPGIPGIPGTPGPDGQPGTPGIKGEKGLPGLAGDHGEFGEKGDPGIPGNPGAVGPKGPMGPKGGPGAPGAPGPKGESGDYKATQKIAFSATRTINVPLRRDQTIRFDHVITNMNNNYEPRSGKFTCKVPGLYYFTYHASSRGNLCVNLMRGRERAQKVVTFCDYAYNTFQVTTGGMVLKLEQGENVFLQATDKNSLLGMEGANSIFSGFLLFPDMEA
T1 sequence (P02747 other isoform, or with tags, fused parts or gaps with the stated changes, chain 3 of 3): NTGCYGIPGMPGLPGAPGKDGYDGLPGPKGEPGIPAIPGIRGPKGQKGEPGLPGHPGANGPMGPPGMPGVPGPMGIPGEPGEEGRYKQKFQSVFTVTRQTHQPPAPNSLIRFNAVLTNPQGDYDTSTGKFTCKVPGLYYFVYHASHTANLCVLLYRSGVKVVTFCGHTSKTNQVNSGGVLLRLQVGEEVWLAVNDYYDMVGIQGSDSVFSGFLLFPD

[2] = biological target: T2, C1q purified from human serum (human, UniProt P02745 23-245; P02746 28-253; P02747 29-245); assay: as above
T2 construct: complement C1q, A chain, human, from serum; complement C1q, B chain, human, from serum; complement C1q, C chain, human, from serum; also called serum C1q; sC1q; source: purified from human serum; copies: 6 + 6 + 6
T2 sequence (P02745 23-245, chain 1 of 3): as the sequence (P02745 other isoform, or with tags, fused parts or gaps with the stated changes, chain 1 of 3) above, with A59K counted along it
T2 sequence (P02746 28-253, chain 2 of 3): as the sequence (P02746 other isoform, or with tags, fused parts or gaps with the stated changes, chain 2 of 3) above, with A61K counted along it
T2 sequence (P02747 29-245, chain 3 of 3): as the sequence (P02747 other isoform, or with tags, fused parts or gaps with the stated changes, chain 3 of 3) above, with A58K counted along it

[3] = biological target: T3, Recombinant C1q (wild type) (UniProt P02745 23-245; P02746 28-253; P02747 29-245); assay: as above
T3 construct: complement C1q, A chain, recombinant; complement C1q, B chain, recombinant; complement C1q, C chain, recombinant; none of these is told here; also called rC1q WT; wild-type C1q; source: produced and purified as described in Bally et al. (16); copies: 6 + 6 + 6
T3 sequence (P02745 23-245, chain 1 of 3): as the sequence (P02745 other isoform, or with tags, fused parts or gaps with the stated changes, chain 1 of 3) above, with A59K counted along it
T3 sequence (P02746 28-253, chain 2 of 3): as the sequence (P02746 other isoform, or with tags, fused parts or gaps with the stated changes, chain 2 of 3) above, with A61K counted along it
T3 sequence (P02747 29-245, chain 3 of 3): as the sequence (P02747 other isoform, or with tags, fused parts or gaps with the stated changes, chain 3 of 3) above, with A58K counted along it

[4] = biological target: T2, C1q purified from human serum; assay: SPR; T200; cluster II (1,230 RU) or cluster IV (1,270 RU) immobilised on CM5; serum C1q, CLR or GR injected in 50 mM Tris, 150 mM NaCl, 2 mM CaCl2, 0.05% P20, pH 7.4, 30 µl/min; KD from C1q 0.125-8 nM by steady state analysis; for competition C1q pre-incubated 15 min at 25°C with C1r2s2
[5] = biological target: T4, Full-length LRP1 (soluble LRP1) (human, UniProt Q07954 20-4419); assay: SPR; BIAcore 3000; full-length (ecto) LRP1 (7,400 RU) or clusters II (2,967 RU), III (3,460 RU), IV (3,396 RU) immobilised on CM5 by amine coupling; RAP 0.25-16 nM injected in 50 mM TEA, 150 mM NaCl, 1 mM CaCl2, 0.005% P20, pH 7.4, 20 µl/min; global fit, 1:1 Langmuir
T4 construct: LDL receptor-related protein 1 (LRP1, CD91), soluble form called ecto-LRP1; also called ecto-LRP1; ecto LRP1; source: produced and purified according to De Nardis et al. (15)

Soluble LRP1 cluster II = biological target: B3; assay: as above
Soluble LRP1 cluster IV = biological target: B1; assay: as above
Sequence of Soluble LRP1 cluster IV (Q07954 other isoform, or with tags, fused parts or gaps): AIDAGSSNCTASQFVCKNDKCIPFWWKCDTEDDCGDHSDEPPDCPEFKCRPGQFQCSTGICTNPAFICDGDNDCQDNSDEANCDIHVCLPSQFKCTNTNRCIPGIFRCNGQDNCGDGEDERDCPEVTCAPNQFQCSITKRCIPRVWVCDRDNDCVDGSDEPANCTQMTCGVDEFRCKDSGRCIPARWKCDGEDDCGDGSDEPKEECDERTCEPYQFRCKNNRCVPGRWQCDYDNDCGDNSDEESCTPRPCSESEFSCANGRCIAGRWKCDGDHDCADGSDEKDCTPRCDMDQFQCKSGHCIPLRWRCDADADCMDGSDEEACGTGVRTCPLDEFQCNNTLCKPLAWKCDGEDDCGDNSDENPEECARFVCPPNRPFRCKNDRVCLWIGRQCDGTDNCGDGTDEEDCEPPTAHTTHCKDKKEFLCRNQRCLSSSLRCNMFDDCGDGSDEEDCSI

Soluble LRP1 cluster III = biological target: T5, Soluble LRP1 cluster III (human, UniProt Q07954 2522-2940); assay: as above
T5 construct: four amino acids naturally located in full-length LRP1 after the cleavage site of the signal peptide; numbers count on: the mature protein; introduced by the cloning process (BamHI site); LRP1 cluster III, 10 CR modules (CR11-20), human; Secreted with the LRP1 signal peptide, which is cleaved; Glycosylated: 63,734 Da by MALDI; also called CR11-20
T5 sequence (Q07954 other isoform, or with tags, fused parts or gaps): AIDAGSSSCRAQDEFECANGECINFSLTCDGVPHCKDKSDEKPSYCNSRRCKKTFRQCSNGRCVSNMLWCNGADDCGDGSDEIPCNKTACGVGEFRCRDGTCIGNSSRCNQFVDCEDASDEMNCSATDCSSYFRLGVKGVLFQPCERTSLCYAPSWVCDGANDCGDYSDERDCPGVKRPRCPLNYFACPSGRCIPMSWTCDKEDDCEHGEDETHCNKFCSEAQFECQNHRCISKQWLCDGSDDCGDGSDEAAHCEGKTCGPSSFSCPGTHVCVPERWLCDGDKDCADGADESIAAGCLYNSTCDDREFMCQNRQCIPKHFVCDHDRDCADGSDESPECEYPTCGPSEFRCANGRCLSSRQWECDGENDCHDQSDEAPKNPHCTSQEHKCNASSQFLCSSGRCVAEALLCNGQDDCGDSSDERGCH

Kd [1] [nM] | Kd [2] [nM] | Kd [3] [nM] | Kd [4] [nM] | Kd [5] [nM] | koff [5] [s⁻¹] | kon [5] [M⁻¹ s⁻¹] | Kd (Soluble LRP1 cluster II) [nM] | koff (Soluble LRP1 cluster II) [s⁻¹] | kon (Soluble LRP1 cluster II) [M⁻¹ s⁻¹] | Kd (Soluble LRP1 cluster IV) [nM] | koff (Soluble LRP1 cluster IV) [s⁻¹] | kon (Soluble LRP1 cluster IV) [M⁻¹ s⁻¹] | Kd (Soluble LRP1 cluster III) [nM] | koff (Soluble LRP1 cluster III) [s⁻¹] | kon (Soluble LRP1 cluster III) [M⁻¹ s⁻¹] | Binder
222 | 158 | 183 | 0.69 |  |  |  |  |  |  |  |  |  |  |  |  | B1
 |  |  |  | 0.76 | 0.00105 | 1.41e+06 | 1.09 | 0.00196 | 2.2e+06 | 1.28 | 0.00147 | 1.18e+06 | 1.06 | 0.00308 | 2.95e+06 | B2
514 | 275 | 318 | 3.49 |  |  |  |  |  |  |  |  |  |  |  |  | B3
